Data from US20180162928A1 (Janssen / Centocor, published 2018).

Tests used:
Experiment in all cases: ELISA, lysate on plate-bound antigen
[1] = molecular target: unrelated Fc-fused recombinant protein
[2] = molecular target: human serum albumin (human) (UniProt P02768)
[3] = molecular target: T1, recombinant biotinylated PD-L1 (rhPD-L1/Fc Chimera, R&D Systems 156-B7) (human, UniProt Q9NZQ7 19-238, biotinylated (sites not given))
T1 construct: Bought Fc chimera; also called human PD-L1
Experimental: Streptavidin-coated Maxisorp plates (Nunc catalog 436110) were blocked for 1 h in Starting Block T20 (Pierce) and then coated with biotinylated PD-L1 (using same antigen as in panning) or negative controls (an unrelated Fc-fused recombinant protein and human serum albumin) for 1 h. Plates were rinsed with TBST and diluted lysate was applied to plates for 1 h. Following additional rinses, wells were treated with HRP-conjugated anti-FN3 domain antibody (PAB25) for 1 h and then assayed with POD (Roche catalog 11582950001).

T1 sequence (Q9NZQ7 19-238, change not shown): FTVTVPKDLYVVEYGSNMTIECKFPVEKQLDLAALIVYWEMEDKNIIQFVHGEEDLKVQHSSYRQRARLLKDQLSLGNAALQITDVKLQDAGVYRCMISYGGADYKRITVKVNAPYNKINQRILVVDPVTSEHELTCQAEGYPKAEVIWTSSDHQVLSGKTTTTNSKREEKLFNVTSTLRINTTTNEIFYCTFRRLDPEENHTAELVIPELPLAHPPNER
Chain of human serum albumin (human) (P02768 25-609 limits assumed): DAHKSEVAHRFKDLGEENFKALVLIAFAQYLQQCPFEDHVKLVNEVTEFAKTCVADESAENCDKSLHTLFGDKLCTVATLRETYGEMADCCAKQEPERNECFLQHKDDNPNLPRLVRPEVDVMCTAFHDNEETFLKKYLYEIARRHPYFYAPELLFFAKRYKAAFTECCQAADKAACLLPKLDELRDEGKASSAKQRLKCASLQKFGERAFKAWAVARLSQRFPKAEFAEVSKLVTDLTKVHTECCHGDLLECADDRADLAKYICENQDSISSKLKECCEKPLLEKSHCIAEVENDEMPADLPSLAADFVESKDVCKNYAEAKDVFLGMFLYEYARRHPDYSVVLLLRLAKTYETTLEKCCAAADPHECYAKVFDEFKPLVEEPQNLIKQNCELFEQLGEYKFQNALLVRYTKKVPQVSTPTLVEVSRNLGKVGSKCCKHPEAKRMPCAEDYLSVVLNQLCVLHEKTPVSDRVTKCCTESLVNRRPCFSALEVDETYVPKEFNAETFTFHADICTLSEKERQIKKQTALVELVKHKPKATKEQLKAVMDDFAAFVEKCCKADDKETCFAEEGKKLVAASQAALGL

| ELISA Fc Control (RSU) [1] | ELISA HSA (RSU) [2] | ELISA PD-L1 Fc (RSU) [3] | Binder |
| --- | --- | --- | --- |
| 640 RSU | 400 RSU | 10000 RSU | ISOP121FR5P1G1 (designed binder, not shown: small tags and cut ends, FN3 domain; E. coli lysate in the ELISA) LPAPKNLVVSRVTEDSARLSWTAPDAAFDSFWIHYTEAPVHGEAIVLTVPGSERSYDLTGLKPGTEYTVVIWGVKGGTWSSPLSAIFTT |
| 880 RSU | 480 RSU | 18600 RSU | ISOP121FR5P1G11 (designed binder, not shown: small tags and cut ends, FN3 domain; E. coli lysate in the ELISA) LPAPKNLVVSRVTEDSARLSWTAPDAAFDSFSIWYLEIVAHGEAIVLTVPGSERSYDLTGLKPGTEYEVIIHGVKGCGPSGPLSAIFTT |
| 640 RSU | 480 RSU | 11400 RSU | ISOP121BR5P1B7 (designed binder, not shown: small tags and cut ends, FN3 domain; E. coli lysate in the ELISA) LPAPKNLVVSRITEDSARLSWKWEEGFFDSFLIQYQESEKVGEAIVLTVPGSERSYDLTGLKPGTEYTVSIYGVYQRHASAFVSNPLSAIFTT |
| 12000 RSU | 6560 RSU | 923000 RSU | ISOP194AR9P1D8 (designed binder, not shown: small tags and cut ends, FN3 domain; E. coli lysate in the ELISA) LPAPKNLVVSRVTEDSARLSWDTWNDFFDSFLIQYQESEKVGEAIVLTVPGSERSYDLTGLKPGTEYTVSIYGVYQRKVIWLSNPLSAIFTT |
| 28200 RSU | 12700 RSU | 1.04e+06 RSU | ISOP194AR9P1D11 (designed binder, not shown: small tags and cut ends, FN3 domain; E. coli lysate in the ELISA) LPAPKNLVVSRVTEDSGRLSWQHHISFFDSFLIQYQESEKVGEAIVLTVPGSERSYDLTGLKPGTEYTVSIYGVYNRKVNFYSNPLSAIFTT |
| 320 RSU | 800 RSU | 105000 RSU | ISOP194GR9P1F9 (designed binder, not shown: small tags and cut ends, FN3 domain; E. coli lysate in the ELISA) LPAPKNLVVSRVTEDSARLSWTAPDAAFDSFWIFYNERWQNGEAIRLIVPGSERSYDLTGLKPGTEYSVIIPGVKGGRNSFPLWAWFTT |
| 800 RSU | 800 RSU | 75800 RSU | ISOP121BR5P1D3 (designed binder, not shown: small tags and cut ends, FN3 domain; E. coli lysate in the ELISA) LPAPKNLVVSRVTEDSARLSWYEDNTERFDSFLIQYQESEKVGEAIVLTVPGSERSYDLTGLKPGTEYTVSIYGVYIRVQVLWFSNPLSAIFTT |
| 720 RSU | 1120 RSU | 1.67e+06 RSU | ISOP194BR9P1D10 (designed binder, not shown: small tags and cut ends, FN3 domain; E. coli lysate in the ELISA) LPAPKNLVVSRVTEDSARLSWYEDNTERFDSFLIQYQESEKVVEAIVLTVPGSERSYDLTGLKPGTEYTVSIYGVYIRVQVLWFSNPLSAIFTT |
| 400 RSU | 1200 RSU | 319000 RSU | ISOP194GR9P1F6 (designed binder, not shown: small tags and cut ends, FN3 domain; E. coli lysate in the ELISA) LPAPKNLVVSRVTEDSARLSWTAPDAAFDSFWIDYWERLSEGEAIALRVPGSERSYDLTGLKPGTEYYVWIVGVKGGKFSQPLRAWFTT |
| 240 RSU | 720 RSU | 8.98e+06 RSU | ISOP194ER9P1E6 (designed binder, not shown: small tags and cut ends, FN3 domain; E. coli lysate in the ELISA) LPAPKNLVVSRVTEDSARLSWTAPDAAFDSFWIKYYEKRNPGEAIVLTVPGSERSYDLTGLKPGTEYLVIISGVKGGSRSVPLSAIFTT |
| 880 RSU | 1760 RSU | 17800 RSU | ISOP121HR5P1G9 (designed binder, not shown: small tags and cut ends, FN3 domain; E. coli lysate in the ELISA) LPAPKNLVVSRVTEDSARLSWTAPDAAFDSFPINYGERATKGEAINLYVPGSERSYDLTGLKPGTEYWVLIGGVKGGLKSSPLWAWFTT |
| 1040 RSU | 1440 RSU | 164000 RSU | ISOP194GR9P1C11 (designed binder, not shown: small tags and cut ends, FN3 domain; E. coli lysate in the ELISA) LPAPKNLVVSRVTEDSARLSWTAPDAAFDSFWIFYNERWQNGEAIRLTVPGSERSYDLTGLKPGTEYWVLIGGVKGGLKSSPLWAWFTT |
| 800 RSU | 560 RSU | 16200 RSU | ISOP121GR5P1B4 (designed binder, not shown: small tags and cut ends, FN3 domain; E. coli lysate in the ELISA) LPAPKNLIVSRVTEDSARLSWTAPDAAFDSFPINYGERATKGEAINLYVPGSERSYDLTGLKPGTEYWVLIGGVKGGLKSSPLWAWFTT |
| 560 RSU | 1840 RSU | 385000 RSU | ISOP194HR9P1B10 (designed binder, not shown: small tags and cut ends, FN3 domain; E. coli lysate in the ELISA) LPAPKNLVVSRVTEDSARLSWTAPDAAFDSFPIRYYERANGEAIVLTVPGSERSYDLTGLKPGTEYIVWIYGVKGGGRSGPLSAIFTT |
| 1200 RSU | 880 RSU | 17000 RSU | ISOP121AR5P1G6 (designed binder, not shown: small tags and cut ends, FN3 domain; E. coli lysate in the ELISA) LPAPKNLVVSRVTEDSARLSWHATFGDPFDSFLIQYQESEKVGEAIVLTVPGSERSYDLTGLKPGTEYTVSIYGVGRHYTVYDSNPLSAIFTT |
| 1920 RSU | 1760 RSU | 1.52e+07 RSU | ISOP194BR9P1F7 (designed binder, not shown: small tags and cut ends, FN3 domain; E. coli lysate in the ELISA) LPAPKNLVVSRVTEDSARLSWFNADEEYFDSFLIQYQESEKVGEAIVLTVPGSERSYDLTGLKPGTEYTVSIYGVYTRGRYEWRESNPLSAIFTT |
| 720 RSU | 560 RSU | 21000 RSU | ISOP121HR5P1H2 (designed binder, not shown: small tags and cut ends, FN3 domain; E. coli lysate in the ELISA) LPAPKNLVVSRVTEDSARLSWTAPDAAFDSFDIYYLEYDYSGEAIVLTVPGSERSYDLTGLKPGTEYDVLIIGVKGGSLSTPLSAIFTT |
| 9200 RSU | 4880 RSU | 1.77e+07 RSU | ISOP194AR9P1H3 (designed binder, not shown: small tags and cut ends, FN3 domain; E. coli lysate in the ELISA) LPAPKNLVVSRVTEDSARLSWNASWISHNFFDSFLIQYQESEKVGEAIVLTVPGSERSYDLTGLKPGTEYTVSIYGVYERKTAFYSNPLSAIFTT |
| 1120 RSU | 1040 RSU | 136000 RSU | ISOP121AR5P1F9 (designed binder, not shown: small tags and cut ends, FN3 domain; E. coli lysate in the ELISA) LPAPKNLVVSRVTEDSARLSWGWSELIATHFDSFLIQYQESEKVGEAIVLTVPGSERSYDLTGLKPGTEYTVSIYGVYNRKVNFYSNPLSAIFTT |
| 15700 RSU | 6800 RSU | 2.14e+07 RSU | ISOP194AR9P1H1 (designed binder, not shown: small tags and cut ends, FN3 domain; E. coli lysate in the ELISA) LPAPKNLVVSRVTEDSARLSWWRVLGHSHFFDSFLIQYQESEKVGEAIVLTVPGSERSYDLTGLKPGTEYTVSIYGVYNRKVNFYSNPLSAIFTT |
| 880 RSU | 960 RSU | 51000 RSU | ISOP121AR5P1F2 (designed binder, not shown: small tags and cut ends, FN3 domain; E. coli lysate in the ELISA) LPAPKNLVISRVTEDSARLSWGWSELIATHFDSFLIQYQESEKVGEAIVLTVPGSERSYDLTGLKPGTEYTVSIYGVYNRKVNFYSNPLSAIFTT |
| 800 RSU | 560 RSU | 16700 RSU | ISOP121BR5P1G2 (designed binder, not shown: small tags and cut ends, FN3 domain; E. coli lysate in the ELISA) LPAPKNLVVSRVTEDSARLSWADELHHANHFDSFLIQYQESEKVGEAIVLTVPGSERSYDLTGLKPGTEYTVSIYGVYDRHYEIHFYSNPLSAIFTT |
| 1360 RSU | 1280 RSU | 2.15e+06 RSU | ISOP194BR9P1D1 (designed binder, not shown: small tags and cut ends, FN3 domain; E. coli lysate in the ELISA) LPAPKNLVVSRVTEDSARLSWEHSLLNDQWFDSFLIQYQESEKVGEAIVLTVPGSERSYDLTGLKPGTEYTVSIYGVYQRGRALWYSNPLSAIFTT |
| 3440 RSU | 1040 RSU | 4.37e+06 RSU | ISOP194AR9P1C5 (designed binder, not shown: small tags and cut ends, FN3 domain; E. coli lysate in the ELISA) LPAPKNLVVSRVTEDSARLSWLRDFNGRAFFDSFLIQYQESEKVGEAIVLTVPGSERSYDPTGLKPGTEYTVSIYGVFITWIHVRSNPLSAIFTT |
| 800 RSU | 1120 RSU | 389000 RSU | ISOP121BR5P1A7 (designed binder, not shown: small tags and cut ends, FN3 domain; E. coli lysate in the ELISA) LPAPKNLVVSRVTEDSARLSWTTAFHNEYFDSFLIQYQESEKVGEAIVLTVPGSERSYDLTGLKPGTEYTVSIYGVYSRPKAEFTSNPLSAIFTT |
| 640 RSU | 960 RSU | 1.44e+07 RSU | ISOP194BR9P1G9 (designed binder, not shown: small tags and cut ends, FN3 domain; E. coli lysate in the ELISA) LPAPKNLVVSRVTEDSARLSWTTAFHNEYFDSFLIQYQESEKVGEAIVLTVPGSERSYDLTGLKPGTEYTVSIYGVYIRVQVLWFSNPLSAIFTT |
| 3040 RSU | 3840 RSU | 4.06e+06 RSU | ISOP194BR9P1H4 (designed binder, not shown: small tags and cut ends, FN3 domain; E. coli lysate in the ELISA) LPAPKNLVVSRVTEDSACLSWTTAFHNEYFDSFLIQYQESEKVGEAIVLTVPGSERSYDLTGLKPGTEYTVSIYGVYSRPKAEFTSNPLSAIFTT |
| 640 RSU | 1440 RSU | 9.79e+06 RSU | ISOP194BR9P1E4 (designed binder, not shown: small tags and cut ends, FN3 domain; E. coli lysate in the ELISA) LPAPKNLVVSRVTEDSARLSWTTAFHNEYFDSFLIQYQESEKVGEAIVLTVPGSERSYDLTGLKPGTEYTVSIYGVYQRGYHNWFSNPLSAIFTT |
| 1920 RSU | 7520 RSU | 1.63e+07 RSU | ISOP194AR9P1F2 (designed binder, not shown: small tags and cut ends, FN3 domain; E. coli lysate in the ELISA) LPAPKNLVISRVTEDSARLSWEWLEHFDSFLIQYQESEKVGEAIVLTVPGSERSYDLTGLKPGTEYTVSIYGVYNRKVNFYSNPLSAIFTT |
| 21300 RSU | 11400 RSU | 2.59e+06 RSU | ISOP194AR9P1H9 (designed binder, not shown: small tags and cut ends, FN3 domain; E. coli lysate in the ELISA) LPAPKNLVVSRVTEDSARLSWEWLEHFDSFQIQYQESEKVGEAIVLTVPGSERSYDLTGLKPGTEYTVSIYGVYQRKVEFHSNPLSAIFTT |
